B1: IFRG15 (parent)
chain: INRADYCPECYPDNPANRSLVLPW

Variants of: B1
Experiment: protein stability index of a GFP-peptide fusion (GPS, HEK-293T) (PSI 1-6); higher = more stable
Settings: c terminus: a fixed tail appended
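Note: lentivirally expressed fusions sorted by FACS into six bins by GFP to DsRed ratio, PSI derived from sequencing read proportions per bin multiplied by bin number.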

Protein stability index of substitutions, site by site:
P23: E 1.03 | C 1.67 | D 2.92
Y11: T 2.32 | N 2.23 | H 2.22 | C 3.16 | L 1.83 | D 3.28 | I 2.25 | K 2.27 | M 2.15 | V 2.8 | R 2.72 | E 2.73 | A 1.96 | G 2.84 | Q 2.58 | W 2.1 | S 2.69 | P 3.15 | F 2.2
S19: K 2.14 | V 1.41 | Y 1.88 | R 1.59 | C 1.81 | L 2.16 | F 1.27 | W 1.99 | E 2.22 | T 1.77 | A 2.16 | D 2.3 | H 2.07 | P 2.4 | M 1.65 | Q 2 | N 1.8 | I 1.72 | G 1.82
N14: A 2.31 | K 2.25 | F 1.71 | D 2.52 | T 1.6 | M 1.68 | L 1.67 | P 2.28 | V 2.04 | H 2.52 | E 2.64 | W 1.03 | Q 1.86 | C 2.2 | G 2.83 | S 2.72 | I 1.53 | Y 2.08 | R 2
P12: D 2.7 | H 1.91 | G 2.69 | T 1.98 | Q 2.11 | R 2.05 | N 1.66 | E 2.46 | V 1.84 | S 2.03 | W 1.72 | L 1.9 | A 2.04 | K 2.1 | Y 2.26 | C 1.69 | F 1.78 | M 2.08 | I 1.56
D13: V 1.63 | K 1.68 | Y 1.57 | E 1.86 | N 2.08 | L 2.53 | P 2.11 | I 1.71 | R 1.69 | T 2.37 | A 1.94 | H 2.07 | W 2.18 | F 1.56 | Q 2.28 | S 1.82 | C 1.97 | G 1.98 | M 2.25
V21: T 2.43 | I 1.97 | W 1.29 | R 1.83 | H 1.84 | Y 1.99 | S 1.97 | Q 2.12 | M 2.29 | E 2.29 | D 2.43 | C 1.82 | N 2.3 | L 2.53 | F 1.54 | K 1.98 | G 2.69 | P 2.92 | A 2.54
P15: T 1.9 | S 2.94 | A 2.9 | I 2.29 | W 2.19 | E 2.58 | M 2.19 | H 2.46 | G 2.48 | V 1.51 | Y 1.84 | N 1.97 | D 2.12 | Q 2.1 | F 1.44 | K 1.74 | L 1.97 | R 2.07 | C 2.02
E9: G 1.66 | Q 1.62 | T 1.86 | L 2.07 | D 2.39 | W 1.58 | Y 1.31 | I 1.38 | N 1.92 | V 3.07 | K 1.63 | M 1.82 | P 3.15 | S 1.86 | A 2.71 | H 1.63 | F 1.78 | R 2.02 | C 2.4
C10: E 2.83 | S 2.92 | T 2.35 | M 2.83 | L 2.31 | R 2.29 | W 2.07 | H 2.6 | V 2.32 | N 2.62 | P 3.17 | Y 2.31 | Q 3.09 | I 1.74 | F 2.66 | A 2.41 | K 2.59 | G 2.81 | D 3.65
L20: A 3.02 | F 1.79 | P 2.31 | Y 1.86 | N 2.78 | E 2.9 | R 2.13 | K 2.27 | V 2.44 | G 2.48 | W 1.8 | D 2.73 | M 2.67 | I 2.27 | S 2.28 | H 2.4 | Q 2.02 | C 2.06 | T 2.57
L22: G 2.37 | R 2.36 | F 2.05 | Q 2.35 | Y 2.17 | I 1.72 | T 2.31 | D 2.15 | N 2.65 | M 2.37 | V 3 | E 2.44 | S 1.93 | A 2.69 | C 2.12 | P 2.93 | W 1.65 | K 2.04 | H 1.49
R18: P 2.38 | M 2.06 | H 2.17 | E 2.13 | Y 1.44 | C 1.81 | K 2.83 | W 1.69 | N 2.22 | V 1.9 | F 2.32 | G 1.99 | A 2.17 | I 1.82 | D 2.88 | T 1.35 | S 2.27 | L 1.83 | Q 1.99
Y6: H 3.04 | V 2.46 | G 2.65 | Q 3.12 | C 2.67 | T 3.14 | E 2.52 | I 2.24 | R 2.44 | K 2.66 | N 2.86 | W 2.3 | A 2.62 | L 2.05 | D 2.9 | F 2.22 | M 2.21 | P 3.33 | S 3.25
A16: P 2.15 | V 1.85 | D 2.37 | C 1.69 | K 1.94 | Q 2.23 | M 1.85 | L 1.86 | R 1.67 | W 1.85 | I 1.6 | S 2.42 | F 2.02 | T 2.06 | H 1.71 | E 2.42 | Y 2.67 | N 2.4 | G 2.04
C7: F 2.28 | H 2.13 | S 3.23 | Q 2.74 | G 2.62 | R 2.73 | T 2.68 | V 2.34 | P 2.42 | W 1.43 | L 1.97 | I 2.27 | A 2.58 | Y 2.41 | D 3.72 | K 2.95 | E 2.5 | M 2.08 | N 2.81
N17: A 2.3 | V 1.79 | L 1.68 | R 1.51 | G 2.53 | I 2.25 | M 1.91 | E 2.14 | Y 1.74 | K 1.8 | C 2.03 | D 2.1 | H 2.04 | F 1.54 | Q 1.79 | S 2.21 | T 2.53 | W 1.6 | P 1.89
P8: Q 2.48 | F 2.1 | T 1.82 | N 1.88 | H 2.3 | R 1.99 | V 1.95 | E 2.34 | G 2.67 | I 1.5 | C 2.07 | Y 2.48 | S 2.46 | W 2.02 | A 1.27 | D 2.64 | M 1.71 | L 1.85 | K 2.47
D5: Y 1.15 | S 2.07 | W 1.91 | V 2.21 | T 1.55 | R 2.39 | Q 1.93 | P 1.91
